Source: US20240245793A1 (UNIVERSITY OF COPENHAGEN, published 2024)
Read-outs that look alike come from different tables or passages of the source. No end group written: not given here. OPEG4 = PEG4 linker (Xa = -O-, formula XXVI) joining two peptide copies; NPEG4 = not defined here

Tests used:
Test in all cases: FP competition against fluorescent dimeric probe, Ki from IC50
[1] = target: T1, PDZ1-2 of PSD-95 (postsynaptic density protein-95) (UniProt P78352 61-249, limits assumed)
T1 construct: domain: PDZ1-2; also called PSD-95 PDZ1-2; PSD-95 PDZ12
T1 sequence (P78352 61-249 limits assumed): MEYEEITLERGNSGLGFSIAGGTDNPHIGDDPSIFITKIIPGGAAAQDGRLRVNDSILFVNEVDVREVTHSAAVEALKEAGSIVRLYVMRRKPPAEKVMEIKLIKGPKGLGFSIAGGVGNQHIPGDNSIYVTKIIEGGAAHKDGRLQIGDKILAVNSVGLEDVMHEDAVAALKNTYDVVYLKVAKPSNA

[2] = target: T1, PDZ1-2 of PSD-95 (postsynaptic density …); remark: listed apart in the source
[3] = target: T1, PDZ1-2 of PSD-95 (postsynaptic density …); remark: listed apart in the source
[4] = target: T1, PDZ1-2 of PSD-95 (postsynaptic density …); remark: listed apart in the source

B1: compound 27, NPEG4-(KETVV)2 fused to L-Arg9 (Ac-RRRRRRRRR-) (peptide)
peptide: KETVV
chain: Ac-RRRRRRRRR
modifications: not fully specified (N-terminus, C-terminus); also: dimer: two copies bridged at N-termini by NPEG4, Arg9 C-terminus on NPEG4 nitrogen
notes: Branched compound CPP-NPEG4-(P1)(P2), formula (XXVIII); also called formula (XIX)
Ki [1]: 6.3 nM

B2: compound 25, NPEG4-(KETTV)2 fused to L-Arg9 (Ac-RRRRRRRRR-) (peptide)
peptide: KETTV
chain: Ac-RRRRRRRRR
modifications: not fully specified (N-terminus, C-terminus); also: dimer: two copies bridged at N-termini by NPEG4, Arg9 C-terminus on NPEG4 nitrogen
notes: Branched compound CPP-NPEG4-(P1)(P2), formula (XXVIII); also called formula (XVIII)
Ki [1]: 5.6 nM

B3: compound 29, NPEG4-(KETRV)2 fused to L-Arg9 (Ac-RRRRRRRRR-) (peptide)
peptide: KETRV
chain: Ac-RRRRRRRRR
modifications: not fully specified (N-terminus, C-terminus); also: dimer: two copies bridged at N-termini by NPEG4, Arg9 C-terminus on NPEG4 nitrogen
notes: Branched compound CPP-NPEG4-(P1)(P2), formula (XXVIII); also called formula (XX)
Ki [1]: 10.1 nM

B4: compound 33, NPEG4-(VETVV)2 fused to L-Arg9 (Ac-RRRRRRRRR-) (peptide)
peptide: VETVV
chain: Ac-RRRRRRRRR
modifications: not fully specified (N-terminus, C-terminus); also: dimer: two copies bridged at N-termini by NPEG4, Arg9 C-terminus on NPEG4 nitrogen
notes: also called formula (XXII)
Ki [1]: 19.9 nM

B5: compound 31, NPEG4-(ISTDV)2 fused to L-Arg9 (Ac-RRRRRRRRR-) (peptide)
peptide: ISTDV
chain: Ac-RRRRRRRRR
modifications: not fully specified (N-terminus, C-terminus); also: dimer: two copies bridged at N-termini by NPEG4, Arg9 C-terminus on NPEG4 nitrogen
notes: Branched compound CPP-NPEG4-(P1)(P2), formula (XXVIII); also called formula (XXI)
Ki [1]: 62.3 nM

B6: compound 4, OPEG4-(KETVV)2 (peptide)
peptide: OPEG4-KETVV
modifications: also: dimer: two copies bridged at N-termini by OPEG4
notes: Dimer of formula (XXXI), P1 = P2, no CPP
Ki [2]: 15.8 nM

B7: compound 2, OPEG4-(KETLV)2 (peptide)
peptide: OPEG4-KETLV
modifications: also: dimer: two copies bridged at N-termini by OPEG4
notes: Dimer of formula (XXIX), P1 = P2, no CPP
Ki [2]: 11.1 nM

B8: compound 5, OPEG4-(KETRV)2 (peptide)
peptide: OPEG4-KETRV
modifications: also: dimer: two KETRV copies joined at their N-termini by the OPEG4 linker
notes: Dimer of formula (XXXII), P1 = P2, no CPP
Ki [2]: 53.2 nM

B9: compound 7, OPEG4-(VETVV)2 (peptide)
peptide: OPEG4-VETVV
modifications: also: dimer: two VETVV copies joined at their N-termini by the OPEG4 linker
notes: Dimer of formula (XXXIV), P1 = P2, no CPP
Ki [2]: 17 nM

B10: compound 50, NPEG4-(IETDV)2 fused to L-DPV3 (Ac-RKKRRRESRKKRRRES-) (peptide)
peptide: NPEG4-IETDV
chain: Ac-RKKRRRESRKKRRRES-NPEG4
modifications: reading uncertain; also: two IETDV copies joined at their N-termini by the NPEG4 linker, CPP C-terminus linked to the NPEG4 nitrogen, printed as NPEG4-(IETDV)2 fused to L-DPV3 (Ac-RKKRRRESRKKRRRES-)
notes: Branched compound CPP-NPEG4-(P1)(P2), formula (XXVIII)
Ki [3]: 16.6 nM

B11: compound 52, NPEG4-(IETDV)2 fused to L-pVEC (Ac-LLIILRRRIRKQAHAHSK-) (peptide)
peptide: NPEG4-IETDV
chain: Ac-LLIILRRRIRKQAHAHSK-NPEG4
modifications: reading uncertain; also: two IETDV copies joined at their N-termini by the NPEG4 linker, CPP C-terminus linked to the NPEG4 nitrogen, printed as NPEG4-(IETDV)2 fused to L-pVEC (Ac-LLIILRRRIRKQAHAHSK-)
notes: as for B10
Ki [3]: 13.3 nM

B12: compound 67, NPEG4-(KETLV)2 fused to L-Arg7 (Ac-RRRRRRR-) (peptide)
peptide: NPEG4-KETLV
chain: Ac-RRRRRRR-NPEG4
modifications: reading uncertain; also: two KETLV copies joined at their N-termini by the NPEG4 linker, CPP C-terminus linked to the NPEG4 nitrogen, printed as NPEG4-(KETLV)2 fused to L-Arg7 (Ac-RRRRRRR-)
notes: as for B10
Ki [4]: 5.8 nM

B13: compound 71, NPEG4-(KETLV)2 fused to L-Arg5 (Ac-RRRRR-) (peptide)
peptide: NPEG4-KETLV
chain: Ac-RRRRR-NPEG4
modifications: reading uncertain; also: two KETLV copies joined at their N-termini by the NPEG4 linker, CPP C-terminus linked to the NPEG4 nitrogen, printed as NPEG4-(KETLV)2 fused to L-Arg5 (Ac-RRRRR-)
notes: as for B10
Ki [4]: 10.9 nM

B14: compound 73, NPEG4-(KETLV)2 fused to L-Arg4 (Ac-RRRR-) (peptide)
peptide: NPEG4-KETLV
chain: Ac-RRRR-NPEG4
modifications: reading uncertain; also: two KETLV copies joined at their N-termini by the NPEG4 linker, CPP C-terminus linked to the NPEG4 nitrogen, printed as NPEG4-(KETLV)2 fused to L-Arg4 (Ac-RRRR-)
Ki [4]: 11.1 nM

B15: compound 6, OPEG4-(ISTDV)2 (peptide)
peptide: OPEG4-ISTDV
modifications: also: dimer: two ISTDV copies joined at their N-termini by the OPEG4 linker
notes: Dimer of formula (XXXIII), P1 = P2, no CPP
Ki [2]: 53.1 nM
